# Measurements published in paper PMC8809517, “Cofactor-independent RNA editing by a synthetic S-type PPR protein”.
# Where a chain is given by its changes, count along the chain named.
# T1: GFP-9S library array, motif 4 ND N98G;D124S (synthetic construct, N98G;D124S)
# T1 chain: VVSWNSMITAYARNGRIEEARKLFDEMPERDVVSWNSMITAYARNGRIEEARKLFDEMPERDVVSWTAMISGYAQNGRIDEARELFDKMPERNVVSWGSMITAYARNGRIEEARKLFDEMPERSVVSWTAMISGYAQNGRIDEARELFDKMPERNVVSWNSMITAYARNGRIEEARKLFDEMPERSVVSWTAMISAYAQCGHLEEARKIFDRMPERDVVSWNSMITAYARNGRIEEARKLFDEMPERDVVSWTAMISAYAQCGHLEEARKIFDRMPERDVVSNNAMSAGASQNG
# T2: GFP-9S library array, motif 4 ND N98A;D124Q (synthetic construct, N98A;D124Q)
# T2 chain: T1 chain with G98A, S124Q
# T3: GFP-9S library array, motif 4 ND N98I;D124H (synthetic construct, N98I;D124H)
# T3 chain: T1 chain with G98I, S124H
# T4: GFP-9S library array, motif 4 ND N98H;D124L (synthetic construct, N98H;D124L)
# T4 chain: T1 chain with G98H, S124L
# T5: GFP-9S library array, motif 4 ND N98C;D124E (synthetic construct, N98C;D124E)
# T5 chain: T1 chain with G98C, S124E
# Tests used:
# Assay in all cases: high-throughput RNA pulldown from lysate on Ni-NTA beads; HRP: 50 mM Tris pH 8, 150 mM NaCl, 1 mM beta-mercaptoethanol, 50 ug/ml BSA, 3 ug/ml yeast RNA, 0.5% heparin; ITC and FP: Tris pH 8, 200 mM KCl, 5% glycerol; MST: 50 mM Tris pH 8, 200 mM NaCl, 1 mM DTT, BSA, heparin, 0.05% Tween 20
# Conditions in all cases: tags: N-terminal His-eGFP
# [1] = molecular target: T1, GFP-9S library array, motif 4 ND …
# [2] = molecular target: T2, GFP-9S library array, motif 4 ND …
# [3] = molecular target: T3, GFP-9S library array, motif 4 ND …
# [4] = molecular target: T4, GFP-9S library array, motif 4 ND …
# [5] = molecular target: T5, GFP-9S library array, motif 4 ND …
Binder,Kd ([1]; label: 5' Cy5),Kd ([2]; label: 5' Cy5),Kd ([3]; label: 5' Cy5),Kd ([4]; label: 5' Cy5),Kd ([5]; label: 5' Cy5),Kd ([1]; label: 5' IRDye 800CW),Kd ([2]; label: 5' IRDye 800CW),Kd ([3]; label: 5' IRDye 800CW),Kd ([4]; label: 5' IRDye 800CW),Kd ([5]; label: 5' IRDye 800CW)
AUUAGACGUGA (ssRNA) [Cy5-rpoA-G],549 nM,174 nM,107 nM,55.6 nM,39.5 nM,–,–,–,–,–
AUUAUACGUGA (ssRNA) [IR-rpoA-U],–,–,–,–,–,749 nM,522 nM,243 nM,32.7 nM,170 nM
AUUAAACGUGA (ssRNA) [IR-rpoA-A],–,–,–,–,–,564 nM,306 nM,167 nM,82.1 nM,146 nM
AUUACACGUGA (ssRNA) [Cy5-rpoA],629 nM,249 nM,147 nM,60.1 nM,503 nM,–,–,–,–,–
